Experiments:
[1] = test system: CC(=O)SCCNC(=O)CCNC(=O)[C@H](O)C(C)(C)COP(=O)(O)OP(=O)(O)OC[C@H]1O[C@@H](n2cnc3c(N)ncnc32)[C@H](O)[C@@H]1OP(=O)(O)O; test: purified protein; conditions: OAA fixed at 0.5 mM, 0.1 mM DTNB, 100 mM Tris-HCl pH 8.0, room temperature
O=C(O)CC(=O)C(=O)O = test: purified protein; conditions: AcCoA fixed at 0.3 mM, 0.1 mM DTNB, 100 mM Tris-HCl pH 8.0, room temperature

What does the source list for “S. aureus citrate synthase (CS, citZ) (Staphylococcus aureus subsp. aureus USA300)”?
Km [1]: 0.29 (95% CI 0.25 to 0.32) mM; kcat [1]: 41 (95% CI 39 to 43) s-1; Km (O=C(O)CC(=O)C(=O)O): 0.03 (95% CI 0.02 to 0.04) mM; kcat (O=C(O)CC(=O)C(=O)O): 30 (95% CI 28 to 32) s-1
